Legend:
[1] = substrate: C=CCCC[C@H](C(=O)O)[C@@H](O)C(=O)O; experiment: (§1) Ratio of kcat/km of recombinant Saccharomyces cerevisiae homoisocitrate dehydrogenase expressed in Escherichia coli Rosetta cells above 10 mM
[2] = substrate: O=C(O)[C@@H](CCO)[C@@H](O)C(=O)O; experiment: as §1
[3] = substrate: C=C[C@H](C(=O)O)[C@@H](O)C(=O)O; experiment: as §1
[4] = substrate: O=C(O)[C@@H](CCCO)[C@@H](O)C(=O)O; experiment: as §1
[5] = substrate: CCC[C@H](C(=O)O)[C@@H](O)C(=O)O; experiment: as §1
[6] = substrate: O=C(O)CCCC[C@H](C(=O)O)[C@@H](O)C(=O)O; experiment: as §1
[7] = substrate: CC[C@H](C(=O)O)[C@@H](O)C(=O)O; experiment: as §1
[8] = substrate: O=C(O)[C@@H](CCCCO)[C@@H](O)C(=O)O; experiment: as §1
[9] = substrate: C[C@H](C(=O)O)[C@@H](O)C(=O)O; experiment: as §1
[10] = substrate: CCCCC[C@H](C(=O)O)[C@@H](O)C(=O)O; experiment: as §1
[11] = substrate: O=C(O)CC[C@H](C(=O)O)[C@@H](O)C(=O)O; experiment: as §1
[12] = substrate: C=CC[C@H](C(=O)O)[C@@H](O)C(=O)O; experiment: as §1
[13] = substrate: O=C(O)CCC[C@H](C(=O)O)[C@@H](O)C(=O)O; experiment: as §1
[14] = substrate: C=CCCC[C@H](C(=O)O)[C@@H](O)C(=O)O; experiment: (§2) Activity of recombinant Saccharomyces cerevisiae homoisocitrate dehydrogenase expressed in Escherichia coli Rosetta cells
[15] = substrate: O=C(O)[C@@H](CCO)[C@@H](O)C(=O)O; experiment: as §2
[16] = substrate: C=C[C@H](C(=O)O)[C@@H](O)C(=O)O; experiment: as §2
[17] = substrate: O=C(O)[C@@H](CCCO)[C@@H](O)C(=O)O; experiment: as §2
[18] = substrate: CCC[C@H](C(=O)O)[C@@H](O)C(=O)O; experiment: as §2
[19] = substrate: O=C(O)CCCC[C@H](C(=O)O)[C@@H](O)C(=O)O; experiment: as §2
[20] = substrate: CC[C@H](C(=O)O)[C@@H](O)C(=O)O; experiment: as §2
[21] = substrate: O=C(O)[C@@H](CCCCO)[C@@H](O)C(=O)O; experiment: as §2
[22] = substrate: C[C@H](C(=O)O)[C@@H](O)C(=O)O; experiment: as §2
[23] = substrate: CCCCC[C@H](C(=O)O)[C@@H](O)C(=O)O; experiment: as §2
[24] = substrate: O=C(O)CC[C@H](C(=O)O)[C@@H](O)C(=O)O; experiment: as §2
[25] = substrate: C=CC[C@H](C(=O)O)[C@@H](O)C(=O)O; experiment: as §2
[26] = substrate: O=C(O)CCC[C@H](C(=O)O)[C@@H](O)C(=O)O; experiment: as §2

B1: Homoisocitrate dehydrogenase, mitochondrial (Saccharomyces cerevisiae S288c), P40495 (protein)
chain: MFRSVATRLSACRGLASNAARKSLTIGLIPGDGIGKEVIPAGKQVLENLNSKHGLSFNFIDLYAGFQTFQETGKALPDETVKVLKEQCQGALFGAVQSPTTKVEGYSSPIVALRREMGLFANVRPVKSVEGEKGKPIDMVIVRENTEDLYIKIEKTYIDKATGTRVADATKRISEIATRRIATIALDIALKRLQTRGQATLTVTHKSNVLSQSDGLFREICKEVYESNKDKYGQIKYNEQIVDSMVYRLFREPQCFDVIVAPNLYGDILSDGAAALVGSLGVVPSANVGPEIVIGEPCHGSAPDIAGKGIANPIATIRSTALMLEFLGHNEAAQDIYKAVDANLREGSIKTPDLGGKASTQQVVDDVLSRL
With B1 the kcat/Km [1] was 15 M⁻¹ s⁻¹, the kcat/Km [2] was 370 M⁻¹ s⁻¹ and the kcat/Km [3] was 150 M⁻¹ s⁻¹. For the same protein, the kcat/Km [4] was 8300 M⁻¹ s⁻¹, the kcat/Km [5] was 2400 M⁻¹ s⁻¹ and the kcat/Km [6] was 18000 M⁻¹ s⁻¹. For the same protein, the kcat/Km [7] was 1000 M⁻¹ s⁻¹, the kcat/Km [8] was 4800 M⁻¹ s⁻¹ and the kcat/Km [9] was 56 M⁻¹ s⁻¹. For the same protein, the kcat/Km [10] was 15 M⁻¹ s⁻¹, the kcat/Km [11] was 940000 M⁻¹ s⁻¹ and the kcat/Km [12] was 830 M⁻¹ s⁻¹. For the same protein, the kcat/Km [13] was 62000 M⁻¹ s⁻¹, the Km [14] was 9400 µM and the kcat [14] was 0.14 s⁻¹. For the same protein, the Km [15] was 2100 µM, the kcat [15] was 0.78 s⁻¹ and the Km [16] was 3400 µM. For the same protein, the kcat [16] was 0.5 s⁻¹, the Km [17] was 580 µM and the kcat [17] was 4.8 s⁻¹. For the same protein, the Km [18] was 290 µM, the kcat [18] was 0.7 s⁻¹ and the Km [19] was 170 µM. It also gave a kcat [19] of 3.1 s⁻¹, a Km [20] of 600 µM and a kcat [20] of 0.61 s⁻¹. It also gave a Km [21] of 440 µM, a kcat [21] of 2.1 s⁻¹ and a Km [22] of 5700 µM. For the same protein, the kcat [22] was 0.32 s⁻¹, the Km [23] was 7200 µM and the kcat [23] was 0.11 s⁻¹. It also gave a Km [24] of 18 µM, a kcat [24] of 17 s⁻¹ and a Km [25] of 410 µM. It also gave a kcat [25] of 0.34 s⁻¹, a Km [26] of 26 µM and a kcat [26] of 1.6 s⁻¹.

— ChEMBL document CHEMBL1142886, “Substrate specificity analysis and inhibitor design of homoisocitrate dehydrogenase” (Bioorg Med Chem, 2007)
